# Measurements reported in patent US20250136696A1 (HARBOUR BIOMED SHANGHAI, published 2025).
# Numbering of substitutions follows the chain as printed. Numbers in names are those of the source.
# T1: human B7-H7 on the cell surface (human, UniProt Q9UM44 23-414)
# T1 construct: whole, on cells; also called hB7-H7; hu B7-H7
# T1 sequence (looked up): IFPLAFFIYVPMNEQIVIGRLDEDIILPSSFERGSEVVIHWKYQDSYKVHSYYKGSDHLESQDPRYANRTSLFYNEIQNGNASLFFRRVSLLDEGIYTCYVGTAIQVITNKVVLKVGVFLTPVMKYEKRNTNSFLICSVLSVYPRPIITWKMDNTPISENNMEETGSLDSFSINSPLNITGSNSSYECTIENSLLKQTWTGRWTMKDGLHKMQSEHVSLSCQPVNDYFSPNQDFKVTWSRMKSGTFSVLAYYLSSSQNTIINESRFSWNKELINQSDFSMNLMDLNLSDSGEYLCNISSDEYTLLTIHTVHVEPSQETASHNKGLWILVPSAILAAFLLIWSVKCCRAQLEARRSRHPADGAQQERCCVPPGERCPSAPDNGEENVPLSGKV
# B1: PR004487 (antibody, human IgG1, kappa, L234A L235A, V domains shown)
# VH: QVQLVESGGGVVQPGRSLRLSCAASGFTFSNYGMHWVRQVPGKGLEWVAVIWYEGSEKDYADSVKGRFTISRDNSKNTLYLQMNSLRVEDTAVYYCAKDLISGIYYVDHWGQGTLVTVSS
# VL: DIQMTQSPSSLSASVGDRVTITCRASQGISNYLAWYQQKPGKVPKLLIYAASTLQSGVPSRFSGSGSGTDFTLTISSLQPEDVATYYCQKYNSAPFTFGPGTKVDIKR
# notes: Variant of PR003259, H:D54E; Human IgG1 LALA; expressed supernatant only
# B2: PR004489 (antibody, human IgG1, kappa, L234A L235A, V domains shown)
# VH: B1 VH
# VL: B1 VL with S93A
# notes: Variant of PR003259, H:D54E; L:S93A; Human IgG1 LALA; expressed supernatant only
# B3: PR004494 (antibody, human IgG1, kappa, L234A L235A, V domains shown)
# VH: B1 VH with E54D
# VL: B1 VL with S93A
# notes: Variant of PR003259, L:S93A; Human IgG1 LALA; expressed supernatant only
# B4: PR004490 (antibody, human IgG1, kappa, L234A L235A, V domains shown)
# VH: B1 VH with E54D, G55A
# VL: B1 VL
# notes: Variant of PR003259, H:G55A; Human IgG1 LALA; expressed supernatant only
# B5: PR004488 (antibody, human IgG1, kappa, L234A L235A, V domains shown)
# VH: B1 VH
# VL: B1 VL with N92Q
# notes: Variant of PR003259, H:D54E; L:N92Q; Human IgG1 LALA; expressed supernatant only
# B6: PR004493 (antibody, human IgG1, kappa, L234A L235A, V domains shown)
# VH: B1 VH with E54D
# VL: B1 VL with N92Q
# notes: Variant of PR003259, L:N92Q; Human IgG1 LALA; expressed supernatant only
# B7: PR004479 (antibody, human IgG1, kappa, L234A L235A, V domains shown)
# VH: QVQLVESGGGVVQPGRSLRLSCAASGFTFSDYGIHWVRQAPGKGLEWVAVIWYEGSDKYYADSVRGRFTISRDNSKNTLSLQMNSLRVEDTAVYYCARDRSSGAMGYFVYWGQGTLVTVSS
# VL: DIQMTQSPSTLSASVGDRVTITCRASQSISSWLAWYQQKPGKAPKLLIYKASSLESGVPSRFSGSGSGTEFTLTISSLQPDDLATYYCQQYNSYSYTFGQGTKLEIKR
# notes: Variant of PR003249, H:D54E; Human IgG1 LALA; expressed supernatant only
# B8: PR004481 (antibody, human IgG1, kappa, L234A L235A, V domains shown)
# VH: B7 VH
# VL: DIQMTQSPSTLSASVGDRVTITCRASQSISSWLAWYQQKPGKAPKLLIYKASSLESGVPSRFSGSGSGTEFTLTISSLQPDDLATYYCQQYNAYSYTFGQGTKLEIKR
# notes: Variant of PR003249, H:D54E; L:S93A; Human IgG1 LALA; expressed supernatant only
# B9: PR004482 (antibody, human IgG1, kappa, L234A L235A, V domains shown)
# VH: B7 VH with E54D, G55A
# VL: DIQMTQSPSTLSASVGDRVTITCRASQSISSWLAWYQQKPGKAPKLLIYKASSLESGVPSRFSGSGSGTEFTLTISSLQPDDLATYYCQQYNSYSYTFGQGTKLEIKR
# notes: Variant of PR003249, H:G55A; Human IgG1 LALA; expressed supernatant only
# B10: PR004485 (antibody, human IgG1, kappa, L234A L235A, V domains shown)
# VH: B7 VH with E54D
# VL: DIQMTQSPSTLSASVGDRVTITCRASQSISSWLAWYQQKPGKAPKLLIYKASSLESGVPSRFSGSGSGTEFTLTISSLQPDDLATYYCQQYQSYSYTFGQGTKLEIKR
# notes: Variant of PR003249, L:N92Q; Human IgG1 LALA; expressed supernatant only
# B11: PR004480 (antibody, human IgG1, kappa, L234A L235A, V domains shown)
# VH: B7 VH
# VL: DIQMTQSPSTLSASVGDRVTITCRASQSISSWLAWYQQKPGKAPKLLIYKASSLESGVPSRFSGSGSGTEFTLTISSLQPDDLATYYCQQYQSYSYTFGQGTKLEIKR
# notes: Variant of PR003249, H:D54E; L:N92Q; Human IgG1 LALA; expressed supernatant only
# B12: PR004486 (antibody, human IgG1, kappa, L234A L235A, V domains shown)
# VH: B7 VH with E54D
# VL: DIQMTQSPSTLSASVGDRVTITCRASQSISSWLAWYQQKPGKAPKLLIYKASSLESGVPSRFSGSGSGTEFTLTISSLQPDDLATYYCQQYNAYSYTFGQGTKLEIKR
# notes: Variant of PR003249, L:S93A; Human IgG1 LALA; expressed supernatant only
# B13: PR004491 (antibody, human IgG1, kappa, L234A L235A, V domains shown)
# VH: B1 VH with E54D, G55A
# VL: B1 VL with N92Q
# notes: Variant of PR003259, H:G55A; L:N92Q; Human IgG1 LALA
# B14: PR004492 (antibody, human IgG1, kappa, L234A L235A, V domains shown)
# VH: B1 VH with E54D, G55A
# VL: B1 VL with S93A
# notes: Variant of PR003259, H:G55A; L:S93A; Human IgG1 LALA
# B15: PR004484 (antibody, human IgG1, kappa, L234A L235A, V domains shown)
# VH: B7 VH with E54D, G55A
# VL: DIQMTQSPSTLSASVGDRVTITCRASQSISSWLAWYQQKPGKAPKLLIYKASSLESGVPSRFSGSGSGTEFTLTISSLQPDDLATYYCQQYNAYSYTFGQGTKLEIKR
# notes: Variant of PR003249, H:G55A; L:S93A; Human IgG1 LALA
# B16: PR004483 (antibody, human IgG1, kappa, L234A L235A, V domains shown)
# VH: B7 VH with E54D, G55A
# VL: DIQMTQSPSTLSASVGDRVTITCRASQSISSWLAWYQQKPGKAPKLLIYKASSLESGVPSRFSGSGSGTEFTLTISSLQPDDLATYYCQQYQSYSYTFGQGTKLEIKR
# notes: Variant of PR003249, H:G55A; L:N92Q; Human IgG1 LALA
# Target: T1, human B7-H7 on the cell surface
# Assay: flow cytometry on LS180 cells, expression supernatant diluted 1:1, 1:10, 1:100
row,binding result,Binder
1,binds,B1
2,binds,B2
3,binds,B3
4,binds,B4
5,binds,B5
6,binds,B6
7,binds,B7
8,binds,B8
9,binds,B9
10,binds,B10
11,binds,B11
12,binds,B12

# Target: T1, human B7-H7 on the cell surface
# Assay: flow cytometry, LS180 cells
# Description: This example was intended to study the in vitro activity of H2L2 monoclonal antibodies against human B7-H7 in binding to human/cynomolgus monkey B7-H7. Since homologous molecules of B7-H7 were not present in mice, the detection was not performed. […] The cells were adjusted to a cell density of 1×10⁶ cells/mL, respectively. The cells were seeded in a 96-well V-bottom plate (Corning, #3894) at 100 μL/well, and the antibody to be tested at 2× final concentration with 3-fold concentration gradient dilution was then added at 100 μL/well. The cells were incubated at 4° C. for 2 hours in the dark. After the incubation, the cells were rinsed twice by adding pre-chilled PBS containing 2% BSA at 100 μl/well, and centrifuged at 500 g at 4° C. for 5 minutes, and the supernatant was discarded. […] The cells were washed twice by adding pre-chilled PBS containing 2% BSA at 100 μL/well, and centrifuged at 500 g at 4° C. for 5 minutes, and the supernatant was discarded. Finally, the cells were resuspended in pre-chilled PBS containing 2% BSA at 200 μL/well, and the fluorescence signal values were read using an ACEA Novocyte3000 flow cytometer.
EC50 [nM],Maximum MFI [MFI],Binder
0.066,22800,B13
0.052,22900,B14
0.04,24600,B15
0.044,25100,B16
